One assay addresses ARF4 (human) (UniProt P18085). Description: co-IP with anti-FLAG, mass spectrometry; lysate of cells with C-FLAG B3GNT2.
For another assay, the target named is ARHGEF2 (human) (UniProt Q92974). The description is as above.
A further assay has as its target CCT7 (human) (UniProt Q99832). Described as above.
The target of the next assay is CTHRC1 (human) (UniProt Q96CG8). The assay is described as above.
A further assay concerns the target EIF4A1 (human) (UniProt P60842). The assay is described as above.
For another assay, the target named is EPRS (human) (UniProt P07814). Described as above.
In the next assay the target is GALNT2 (human) (UniProt Q10471). Described as above.
Sequence of GALNT2 (human) (Q10471 whole entry): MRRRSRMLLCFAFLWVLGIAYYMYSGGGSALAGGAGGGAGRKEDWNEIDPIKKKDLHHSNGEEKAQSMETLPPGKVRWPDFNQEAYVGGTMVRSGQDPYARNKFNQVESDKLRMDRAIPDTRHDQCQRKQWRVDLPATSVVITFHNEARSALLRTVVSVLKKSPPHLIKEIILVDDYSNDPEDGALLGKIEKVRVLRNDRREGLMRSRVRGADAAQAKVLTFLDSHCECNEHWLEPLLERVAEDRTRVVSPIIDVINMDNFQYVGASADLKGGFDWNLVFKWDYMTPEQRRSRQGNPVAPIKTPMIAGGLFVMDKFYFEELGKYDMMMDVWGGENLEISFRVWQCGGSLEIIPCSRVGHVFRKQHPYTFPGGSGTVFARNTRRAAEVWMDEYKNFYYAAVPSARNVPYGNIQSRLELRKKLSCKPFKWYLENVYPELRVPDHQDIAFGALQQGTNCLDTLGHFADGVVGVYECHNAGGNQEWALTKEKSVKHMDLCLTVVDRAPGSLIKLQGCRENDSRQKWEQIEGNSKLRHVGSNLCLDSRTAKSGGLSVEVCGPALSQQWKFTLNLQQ
The next assay deals with GANAB (human) (UniProt Q14697). The description is as above.
A further assay has as its target GAPDH (human) (UniProt P04406). The description is as above.
The target in the next assay is HADHA (human) (UniProt P40939). Described as above.
Another assay concerns the target HSPD1 (human) (UniProt P10809). Described as above.
A further assay addresses IPO13 (human) (UniProt O94829). The assay is described as above.
The next assay addresses MSN (human) (UniProt P26038). The description is as above.
The target in the next assay is MYO1C (human) (UniProt O00159). The assay is described as above.
For a further assay, the target named is NPM1 (human) (UniProt P06748). The description is as above.
In a further assay the target is PJA2 (human) (UniProt O43164). Described as above.
Sequence of PJA2 (human) (O43164 2-708 limits assumed): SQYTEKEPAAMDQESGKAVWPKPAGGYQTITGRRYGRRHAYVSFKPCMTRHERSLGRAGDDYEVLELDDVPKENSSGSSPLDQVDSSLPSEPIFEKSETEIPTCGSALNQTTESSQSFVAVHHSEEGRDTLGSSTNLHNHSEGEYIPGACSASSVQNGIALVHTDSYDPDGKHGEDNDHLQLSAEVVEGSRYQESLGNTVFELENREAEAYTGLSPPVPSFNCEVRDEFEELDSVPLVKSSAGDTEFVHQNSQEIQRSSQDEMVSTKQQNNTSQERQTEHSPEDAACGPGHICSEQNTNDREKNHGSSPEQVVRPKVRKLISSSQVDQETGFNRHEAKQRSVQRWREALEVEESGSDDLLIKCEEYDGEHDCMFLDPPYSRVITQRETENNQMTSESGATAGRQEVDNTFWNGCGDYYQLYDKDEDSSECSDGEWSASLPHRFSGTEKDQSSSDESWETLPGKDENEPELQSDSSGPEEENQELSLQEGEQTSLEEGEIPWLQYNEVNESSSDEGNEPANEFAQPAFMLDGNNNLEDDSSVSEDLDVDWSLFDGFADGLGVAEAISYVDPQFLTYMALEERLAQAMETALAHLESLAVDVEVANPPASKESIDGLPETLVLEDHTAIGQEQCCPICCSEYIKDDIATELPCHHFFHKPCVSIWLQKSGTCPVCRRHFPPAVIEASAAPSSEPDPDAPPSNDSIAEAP
A further assay has as its target RARS (human) (UniProt P54136). The description is as above.
The next assay concerns the target RPL26 (human) (UniProt P61254). The description is as above.
The target in a further assay is RPL32 (human) (UniProt P62910). Described as above.
For a further assay, the target named is RPL9 (human) (UniProt P32969). The assay is described as above.
In another assay the target is RPS27 (human) (UniProt P42677). The description is as above.
A further assay addresses RRP12 (human) (UniProt Q5JTH9). The description is as above.
A further assay addresses SEL1L (human) (UniProt Q9UBV2). Described as above.
For a further assay, the target named is SLC27A4 (human) (UniProt Q6P1M0). Described as above.
Sequence of SLC27A4 (human) (Q6P1M0 whole entry): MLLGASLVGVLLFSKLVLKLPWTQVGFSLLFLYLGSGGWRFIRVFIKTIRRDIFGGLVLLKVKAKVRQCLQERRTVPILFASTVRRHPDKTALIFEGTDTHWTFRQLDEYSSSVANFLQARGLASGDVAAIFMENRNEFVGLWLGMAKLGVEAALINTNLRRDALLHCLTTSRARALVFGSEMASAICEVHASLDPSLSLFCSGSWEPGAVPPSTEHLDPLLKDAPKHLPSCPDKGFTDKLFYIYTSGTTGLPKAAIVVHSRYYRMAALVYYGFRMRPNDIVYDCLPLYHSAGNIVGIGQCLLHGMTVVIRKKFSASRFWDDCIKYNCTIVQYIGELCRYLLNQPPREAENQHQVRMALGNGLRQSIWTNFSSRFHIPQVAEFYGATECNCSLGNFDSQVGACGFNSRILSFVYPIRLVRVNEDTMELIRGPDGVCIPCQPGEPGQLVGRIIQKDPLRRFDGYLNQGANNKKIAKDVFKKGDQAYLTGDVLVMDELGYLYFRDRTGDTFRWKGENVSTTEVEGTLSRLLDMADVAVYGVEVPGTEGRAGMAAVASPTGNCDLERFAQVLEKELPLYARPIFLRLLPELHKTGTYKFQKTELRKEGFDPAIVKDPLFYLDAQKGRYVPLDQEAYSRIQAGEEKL
In another assay the target is SPRR1A (human) (UniProt P35321). The assay is described as above.
Sequence of SPRR1A (human) (P35321 whole entry): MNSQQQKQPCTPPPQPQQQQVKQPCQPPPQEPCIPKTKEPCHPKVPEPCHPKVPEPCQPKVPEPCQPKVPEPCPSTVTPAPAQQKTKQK
The next assay concerns the target STAU2 (human) (UniProt Q9NUL3). The description is as above.
For the next assay, the target named is UGGT1 (human) (UniProt Q9NYU2). Described as above.
Another assay concerns the target ZC3HAV1 (human) (UniProt Q7Z2W4). Described as above.
For the next assay, the target named is ANXA2 (human) (UniProt P07355). Kind of assay: IgG control IP from lysate of cells overexpressing C-FLAG B3GNT2, then mass spectrometry.
In a further assay the target is EIF3I (human) (UniProt Q13347). The assay is described as above.
Sequence of EIF3I (human) (Q13347 whole entry): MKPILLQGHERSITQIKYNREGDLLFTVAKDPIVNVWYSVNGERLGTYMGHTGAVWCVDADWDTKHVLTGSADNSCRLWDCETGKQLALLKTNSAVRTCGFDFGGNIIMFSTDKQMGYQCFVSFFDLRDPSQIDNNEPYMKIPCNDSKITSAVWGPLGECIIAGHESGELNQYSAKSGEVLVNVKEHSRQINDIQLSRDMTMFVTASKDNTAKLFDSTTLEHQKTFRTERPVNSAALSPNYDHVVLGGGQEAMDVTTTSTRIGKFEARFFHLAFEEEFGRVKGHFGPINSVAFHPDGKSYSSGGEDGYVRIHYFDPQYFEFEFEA
The next assay concerns the target KHDRBS1 (human) (UniProt Q07666). Described as above.
Another assay has as its target PABPC1 (human) (UniProt P11940). The assay is described as above.
A further assay addresses SRP14 (human) (UniProt P37108). The description is as above.
Another assay concerns the target SUPT16H (human) (UniProt Q9Y5B9). Described as above.
For another assay, the target named is TAF15 (human) (UniProt Q92804). The description is as above.
For the next assay, the target named is TCP1 (human) (UniProt P17987). The description is as above.
For a further assay, the target named is TFAM (human) (UniProt Q00059). The description is as above.

Sequence of CCT7 (human) (Q99832 45-543 limits assumed): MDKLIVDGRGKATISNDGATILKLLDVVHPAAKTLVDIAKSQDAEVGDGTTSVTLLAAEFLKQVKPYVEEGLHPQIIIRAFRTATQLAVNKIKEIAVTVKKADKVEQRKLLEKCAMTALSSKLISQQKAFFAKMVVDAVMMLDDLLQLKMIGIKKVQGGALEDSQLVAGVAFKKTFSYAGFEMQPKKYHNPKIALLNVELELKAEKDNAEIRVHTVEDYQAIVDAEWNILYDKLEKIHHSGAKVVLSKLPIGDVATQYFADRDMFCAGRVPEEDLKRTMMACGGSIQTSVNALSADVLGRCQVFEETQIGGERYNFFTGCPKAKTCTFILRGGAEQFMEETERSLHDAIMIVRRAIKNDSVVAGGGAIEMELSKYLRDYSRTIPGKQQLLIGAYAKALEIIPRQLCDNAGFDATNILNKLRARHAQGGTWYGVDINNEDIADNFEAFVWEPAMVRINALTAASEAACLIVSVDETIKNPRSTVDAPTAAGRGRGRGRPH
Sequence of RARS (human) (P54136 whole entry): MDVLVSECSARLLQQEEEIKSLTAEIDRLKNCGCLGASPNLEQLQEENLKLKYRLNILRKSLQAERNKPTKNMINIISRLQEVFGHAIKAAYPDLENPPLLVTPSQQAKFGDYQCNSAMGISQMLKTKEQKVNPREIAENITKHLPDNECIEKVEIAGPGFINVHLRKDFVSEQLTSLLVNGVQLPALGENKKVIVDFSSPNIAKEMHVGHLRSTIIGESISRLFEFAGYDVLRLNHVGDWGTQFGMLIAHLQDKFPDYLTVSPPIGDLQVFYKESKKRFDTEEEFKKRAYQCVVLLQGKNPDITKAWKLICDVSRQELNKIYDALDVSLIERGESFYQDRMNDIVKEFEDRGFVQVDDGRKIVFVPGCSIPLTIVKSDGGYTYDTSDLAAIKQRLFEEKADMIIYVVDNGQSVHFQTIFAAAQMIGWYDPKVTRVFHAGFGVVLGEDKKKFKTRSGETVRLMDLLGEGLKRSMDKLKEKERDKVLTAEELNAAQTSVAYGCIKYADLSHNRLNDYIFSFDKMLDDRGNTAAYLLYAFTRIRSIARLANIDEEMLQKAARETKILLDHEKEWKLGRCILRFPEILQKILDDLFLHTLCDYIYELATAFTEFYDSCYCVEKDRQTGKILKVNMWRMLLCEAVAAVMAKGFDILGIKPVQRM
Sequence of KHDRBS1 (human) (Q07666 whole entry): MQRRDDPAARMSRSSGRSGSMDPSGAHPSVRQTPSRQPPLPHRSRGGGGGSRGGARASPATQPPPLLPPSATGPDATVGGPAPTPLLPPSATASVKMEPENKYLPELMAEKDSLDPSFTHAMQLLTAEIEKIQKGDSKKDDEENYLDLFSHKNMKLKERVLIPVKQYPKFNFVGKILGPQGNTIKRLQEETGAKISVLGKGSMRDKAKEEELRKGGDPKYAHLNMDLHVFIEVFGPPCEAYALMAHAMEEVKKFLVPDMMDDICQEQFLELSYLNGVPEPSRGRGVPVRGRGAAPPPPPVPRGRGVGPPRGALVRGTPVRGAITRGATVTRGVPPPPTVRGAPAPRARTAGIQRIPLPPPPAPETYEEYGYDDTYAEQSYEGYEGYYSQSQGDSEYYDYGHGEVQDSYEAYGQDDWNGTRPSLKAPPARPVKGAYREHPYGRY
Sequence of IPO13 (human) (O94829 whole entry): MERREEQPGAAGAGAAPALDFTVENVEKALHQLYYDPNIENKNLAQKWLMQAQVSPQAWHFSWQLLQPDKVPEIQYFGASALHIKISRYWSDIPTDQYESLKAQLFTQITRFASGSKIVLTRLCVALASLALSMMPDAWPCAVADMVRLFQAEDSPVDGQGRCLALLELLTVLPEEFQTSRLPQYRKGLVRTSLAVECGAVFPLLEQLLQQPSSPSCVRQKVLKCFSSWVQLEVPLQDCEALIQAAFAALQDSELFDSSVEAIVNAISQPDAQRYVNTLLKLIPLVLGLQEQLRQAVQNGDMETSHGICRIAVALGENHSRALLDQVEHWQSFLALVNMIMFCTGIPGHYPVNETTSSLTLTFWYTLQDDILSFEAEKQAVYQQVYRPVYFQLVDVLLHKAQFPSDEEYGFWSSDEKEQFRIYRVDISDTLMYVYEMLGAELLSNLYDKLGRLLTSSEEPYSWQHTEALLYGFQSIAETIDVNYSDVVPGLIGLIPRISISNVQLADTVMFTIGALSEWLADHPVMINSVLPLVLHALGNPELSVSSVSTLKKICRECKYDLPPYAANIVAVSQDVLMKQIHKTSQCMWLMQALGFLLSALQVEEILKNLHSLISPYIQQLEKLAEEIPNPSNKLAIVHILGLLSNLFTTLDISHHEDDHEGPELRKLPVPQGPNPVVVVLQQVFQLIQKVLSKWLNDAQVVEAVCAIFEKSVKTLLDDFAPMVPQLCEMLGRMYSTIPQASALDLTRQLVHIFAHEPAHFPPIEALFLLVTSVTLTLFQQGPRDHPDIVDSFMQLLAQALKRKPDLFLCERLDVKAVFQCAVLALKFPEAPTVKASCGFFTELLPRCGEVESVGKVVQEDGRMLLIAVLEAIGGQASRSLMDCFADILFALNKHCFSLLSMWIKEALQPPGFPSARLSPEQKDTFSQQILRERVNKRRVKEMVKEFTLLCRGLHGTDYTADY

On to “C-terminal FLAG tagged B3GNT2 (from UniProt Q9NY97 1-397) (enzyme)”, for which the co-IP mass spectrometry count with ARF4 (human) was determined as 4; in the assay with ARHGEF2 (human), 2; with CCT7 (human), 2; with CTHRC1 (human), 2; in the assay with EIF4A1 (human), 6; with EPRS (human), 4. Further, the co-IP mass spectrometry count with GALNT2 (human) was 2; with GANAB (human), 8; with GAPDH (human), 16; with HADHA (human), 2; with HSPD1 (human) it was 6; in the assay with IPO13 (human), 2. In addition, the co-IP mass spectrometry count was found to be 4 with MSN (human); 3 with MYO1C (human); 8 with NPM1 (human); 2 with PJA2 (human); 2 in the assay with RARS (human); 12 in the assay with RPL26 (human). Further, the co-IP mass spectrometry count with RPL32 (human) was 7; with RPL9 (human) it was 7; with RPS27 (human) it was 6; in the assay with RRP12 (human), 2; with SEL1L (human) it was 5; in the assay with SLC27A4 (human) it was 2. The co-IP mass spectrometry count was 3 with SPRR1A (human), 2 with STAU2 (human), 5 with UGGT1 (human) and 4 with ZC3HAV1 (human).

Turning to “IgG control (Millipore Sigma 12-371) (antibody)”, the co-IP mass spectrometry count (C-term IgG) with ANXA2 (human) came out at 16; in the assay with EIF3I (human), 0; with KHDRBS1 (human), 7; in the assay with PABPC1 (human) it was 30; in the assay with SRP14 (human), 0; with SUPT16H (human) it was 0. Moreover, the co-IP mass spectrometry count (C-term IgG) with TAF15 (human) came to 4; with TCP1 (human), 0; in the assay with TFAM (human), 0.

The values above are taken from patent US20240261333A1, “NOVEL TARGETS FOR ENHANCING ANTI-TUMOR IMMUNITY” (THE BROAD INSTITUTE, INC., priority 2021, published 2024).
